Source: US20240425607A1, “IL-18BP ANTAGONIST ANTIBODIES AND THEIR USE IN MONOTHERAPY AND COMBINATION THERAPY IN THE TREATMENT OF CANCER” (Compugen Ltd., priority 2023, published 2024)

Key:
[1] = biological target: human IL-18BP (recombinant, construct not stated) (human) (UniProt O95998); test: Biacore
[2] = biological target: human IL-18BP (recombinant, construct not stated) (human) (UniProt O95998); test: KinExA
[3] = biological target: cynomolgus monkey IL-18BP (construct not stated) (cynomolgus monkey); test: KinExA, solution equilibrium

Sequence of human IL-18BP (recombinant, construct not stated) (human) (O95998 31-194 limits assumed): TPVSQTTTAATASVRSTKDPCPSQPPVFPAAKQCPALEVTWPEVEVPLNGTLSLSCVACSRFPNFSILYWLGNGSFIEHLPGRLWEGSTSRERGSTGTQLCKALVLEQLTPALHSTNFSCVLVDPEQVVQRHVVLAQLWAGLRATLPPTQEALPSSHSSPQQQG

Q: Which Kd [1] does the source give for “anti-human IL18BP antibody clone 136007 (cat. MAB1191, R&D systems)” here?
A: 0.273 nM

Q: How did the Kd [2] turn out when “anti-human IL18BP antibody clone W19089C (cat. 947703, Biolegend)” was run?
A: 0.0638 nM

Q: How did the Kd [3] turn out when “cyno IL-18 (from UniProt A0A2K5TJ84 37-193) (ligand)” was run?
A: 0.000345 nM
